Reference: patent US20230220589A1
Substitutions are numbered along the chain they refer to.

Experiments:
[1] = molecular target: M17-modified A NTAA target peptides; assay: encoding assay; P2 F
[2] = molecular target: M17-modified D NTAA target peptides; assay: encoding assay; P2 F
[3] = molecular target: M17-modified E NTAA target peptides; assay: encoding assay; P2 F
[4] = molecular target: M17-modified F NTAA target peptides; assay: encoding assay; P2 F
[5] = molecular target: M17-modified G NTAA target peptides; assay: encoding assay; P2 F
[6] = molecular target: M17-modified H NTAA target peptides; assay: encoding assay; P2 F
[7] = molecular target: M17-modified I NTAA target peptides; assay: encoding assay; P2 F
[8] = molecular target: M17-modified L NTAA target peptides; assay: encoding assay; P2 F
[9] = molecular target: M17-modified M NTAA target peptides; assay: encoding assay; P2 F
[10] = molecular target: M17-modified N NTAA target peptides; assay: encoding assay; P2 F
[11] = molecular target: M17-modified P NTAA target peptides; assay: encoding assay; P2 F
[12] = molecular target: M17-modified Q NTAA target peptides; assay: encoding assay; P2 F
[13] = molecular target: M17-modified S NTAA target peptides; assay: encoding assay; P2 F
[14] = molecular target: M17-modified T NTAA target peptides; assay: encoding assay; P2 F
[15] = molecular target: M17-modified V NTAA target peptides; assay: encoding assay; P2 F
[16] = molecular target: M17-modified W NTAA target peptides; assay: encoding assay; P2 F
[17] = molecular target: M17-modified Y NTAA target peptides (M17-Y-P2-peptide); assay: encoding assay; P2 F
[18] = molecular target: M17-modified D NTAA target peptides; assay: encoding assay; P2 G
[19] = molecular target: M17-modified G NTAA target peptides; assay: encoding assay; P2 G
[20] = molecular target: M17-modified L NTAA target peptides; assay: encoding assay; P2 G
[21] = molecular target: M17-modified M NTAA target peptides; assay: encoding assay; P2 G
[22] = molecular target: M17-modified P NTAA target peptides; assay: encoding assay; P2 G
[23] = molecular target: M17-modified S NTAA target peptides; assay: encoding assay; P2 G
[24] = molecular target: M17-modified V NTAA target peptides; assay: encoding assay; P2 G
[25] = molecular target: M17-modified A NTAA target peptides; assay: encoding assay; P2 N
[26] = molecular target: M17-modified D NTAA target peptides; assay: encoding assay; P2 N
[27] = molecular target: M17-modified G NTAA target peptides; assay: encoding assay; P2 N
[28] = molecular target: M17-modified P NTAA target peptides; assay: encoding assay; P2 N
[29] = molecular target: M17-modified S NTAA target peptides; assay: encoding assay; P2 N
[30] = molecular target: M17-modified T NTAA target peptides; assay: encoding assay; P2 N
[31] = molecular target: M17-modified A NTAA target peptides; assay: encoding assay; P2 Q
[32] = molecular target: M17-modified D NTAA target peptides; assay: encoding assay; P2 Q
[33] = molecular target: M17-modified E NTAA target peptides; assay: encoding assay; P2 Q
[34] = molecular target: M17-modified F NTAA target peptides; assay: encoding assay; P2 Q
[35] = molecular target: M17-modified G NTAA target peptides; assay: encoding assay; P2 Q
[36] = molecular target: M17-modified H NTAA target peptides; assay: encoding assay; P2 Q
[37] = molecular target: M17-modified I NTAA target peptides; assay: encoding assay; P2 Q
[38] = molecular target: M17-modified L NTAA target peptides; assay: encoding assay; P2 Q
[39] = molecular target: M17-modified N NTAA target peptides; assay: encoding assay; P2 Q
[40] = molecular target: M17-modified P NTAA target peptides; assay: encoding assay; P2 Q
[41] = molecular target: M17-modified Q NTAA target peptides; assay: encoding assay; P2 Q
[42] = molecular target: M17-modified S NTAA target peptides; assay: encoding assay; P2 Q
[43] = molecular target: M17-modified T NTAA target peptides; assay: encoding assay; P2 Q
[44] = molecular target: M17-modified V NTAA target peptides; assay: encoding assay; P2 Q
[45] = molecular target: M17-modified W NTAA target peptides; assay: encoding assay; P2 Q
[46] = molecular target: M17-modified Y NTAA target peptides (M17-Y-P2-peptide); assay: encoding assay; P2 Q
[47] = molecular target: M44-modified P NTAA target peptides; assay: encoding assay; P2 G
[48] = molecular target: M44-modified G NTAA target peptides (M44-G-P2-peptide); assay: encoding assay; P2 N
[49] = molecular target: M44-modified T NTAA target peptides; assay: encoding assay; P2 N
[50] = molecular target: M44-modified G NTAA target peptides (M44-G-P2-peptide); assay: encoding assay; P2 Q
[51] = molecular target: M44-modified P NTAA target peptides; assay: encoding assay; P2 Q
[52] = molecular target: M44-modified T NTAA target peptides; assay: encoding assay; P2 Q
[53] = molecular target: M44-modified W NTAA target peptides; assay: encoding assay; P2 Q
[54] = molecular target: M44-modified Y NTAA target peptides (M44-Y-P2-peptide); assay: encoding assay; P2 Q
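Further: fraction of recording tags encoded.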

B1: engineered M17-Y binder (SEQ ID NO: 61) (designed binder, not shown: small tags and cut ends; large carriers)
chain: TVPDRSEIAGKWYVVALASNTEFYLREKDWVKSAMARISFLGEDELKVSSAVPSPNGCYKVERTWKKTSDDGEVYNSRAAKLKVEVLDTDYKSYAVIYATRVKDGRTDHQMILYSRSPEVSPAATAIFRKLAGERNYTDEMVAMLPRQEECTVDEV
Question: B1 was tested. Which encoding yield [1] did it give?
Answer: 0.02

Question: And the encoding yield [2]?
Answer: 0.02

Question: What about the encoding yield [3] of the same binder?
Answer: 0.04

Question: And the encoding yield [4]?
Answer: 0.07

Question: What about the encoding yield [5] of the same binder?
Answer: 0.03

Question: What about the encoding yield [6] of the same binder?
Answer: 0.03

Question: And the encoding yield [7]?
Answer: 0.06

Question: What about the encoding yield [8] of the same binder?
Answer: 0.04

Question: What about the encoding yield [9] of the same binder?
Answer: 0.03

Question: What about the encoding yield [10] of the same binder?
Answer: 0.02

Question: What about the encoding yield [11] of the same binder?
Answer: 0.01

Question: What about the encoding yield [12] of the same binder?
Answer: 0.02

Question: And the encoding yield [13]?
Answer: 0.02

Question: And the encoding yield [14]?
Answer: 0.02

Question: And the encoding yield [15]?
Answer: 0.02

Question: And the encoding yield [16]?
Answer: 0.05

Question: What about the encoding yield [17] of the same binder?
Answer: 0.2

Question: What about the encoding yield [18] of the same binder?
Answer: 0.01

Question: And the encoding yield [19]?
Answer: 0.01

Question: And the encoding yield [20]?
Answer: 0.02

Question: And the encoding yield [21]?
Answer: 0.01

Question: What about the encoding yield [22] of the same binder?
Answer: 0.01

Question: And the encoding yield [23]?
Answer: 0.01

Question: And the encoding yield [24]?
Answer: 0.02

Question: And the encoding yield [25]?
Answer: 0.02

Question: What about the encoding yield [26] of the same binder?
Answer: 0.02

Question: What about the encoding yield [27] of the same binder?
Answer: 0.03

Question: What about the encoding yield [28] of the same binder?
Answer: 0.01

Question: And the encoding yield [29]?
Answer: 0.02

Question: What about the encoding yield [30] of the same binder?
Answer: 0.01

Question: And the encoding yield [31]?
Answer: 0.03

Question: What about the encoding yield [32] of the same binder?
Answer: 0.01

Question: What about the encoding yield [33] of the same binder?
Answer: 0.02

Question: And the encoding yield [34]?
Answer: 0.04

Question: And the encoding yield [35]?
Answer: 0.02

Question: What about the encoding yield [36] of the same binder?
Answer: 0.04

Question: And the encoding yield [37]?
Answer: 0.02

Question: And the encoding yield [38]?
Answer: 0.03

Question: And the encoding yield [39]?
Answer: 0.03

Question: And the encoding yield [40]?
Answer: 0.01

Question: What about the encoding yield [41] of the same binder?
Answer: 0.01

Question: And the encoding yield [42]?
Answer: 0.03

Question: What about the encoding yield [43] of the same binder?
Answer: 0.01

Question: What about the encoding yield [44] of the same binder?
Answer: 0.03

Question: What about the encoding yield [45] of the same binder?
Answer: 0.01

Question: What about the encoding yield [46] of the same binder?
Answer: 0.03

B2: upgraded binder after additional maturation round (SEQ ID NO: 62) (designed binder, not shown: small tags and cut ends; large carriers)
chain: B1 chain with E27G, W30R, A36V, L41Q, G105R, E119D
Question: What does the source list for B2?
Answer: encoding yield [1]: 0.04; encoding yield [2]: 0.02; encoding yield [3]: 0.04; encoding yield [4]: 0.1; encoding yield [5]: 0.04; encoding yield [6]: 0.04; encoding yield [7]: 0.06; encoding yield [8]: 0.05; encoding yield [9]: 0.05; encoding yield [10]: 0.03; encoding yield [11]: 0.02; encoding yield [12]: 0.03; encoding yield [13]: 0.02; encoding yield [14]: 0.03; encoding yield [15]: 0.02; encoding yield [16]: 0.11; encoding yield [17]: 0.28; encoding yield [18]: 0.02; encoding yield [19]: 0.01; encoding yield [20]: 0.03; encoding yield [21]: 0.02; encoding yield [22]: 0.02; encoding yield [23]: 0.01; encoding yield [24]: 0.03; encoding yield [25]: 0.02; encoding yield [26]: 0.02; encoding yield [27]: 0.03; encoding yield [28]: 0.02; encoding yield [29]: 0.02; encoding yield [30]: 0.01; encoding yield [31]: 0.04; encoding yield [32]: 0.02; encoding yield [33]: 0.02; encoding yield [34]: 0.04; encoding yield [35]: 0.01; encoding yield [36]: 0.03; encoding yield [37]: 0.03; encoding yield [38]: 0.04; encoding yield [39]: 0.04; encoding yield [40]: 0.02; encoding yield [41]: 0.01; encoding yield [42]: 0.03; encoding yield [43]: 0.02; encoding yield [44]: 0.04; encoding yield [45]: 0.02; encoding yield [46]: 0.15

B3: engineered M44-L binder (SEQ ID NO: 31) (designed binder, not shown: small tags and cut ends; large carriers)
chain: QDSTQNLIPAPPLISVPLQPGFWTERFQGRWFLVGFAGNAVQKERQSRLTMQSLILELQEDNSYNITAINVRGQGCRYIISTLVPSSRPGQFTLGNIHSYPQIQSLDVQVADTDYDQFAMVFLQGTSENKQYFEVALAGRTKGLSDELKERFVSFAKSLGLKDNNIVFSVPTDQCIDN
Question: With B3 as the binder, how does the encoding yield [47] read?
Answer: 0.02

Question: And the encoding yield [48]?
Answer: 0.02

Question: And the encoding yield [49]?
Answer: 0.01

Question: What about the encoding yield [50] of the same binder?
Answer: 0.01

Question: And the encoding yield [51]?
Answer: 0.01

Question: And the encoding yield [52]?
Answer: 0.02

Question: What about the encoding yield [53] of the same binder?
Answer: 0.02

Question: And the encoding yield [54]?
Answer: 0.03

B4: engineered M44-A binder (SEQ ID NO: 42) (designed binder, not shown: small tags and cut ends; large carriers)
chain: QVSVQPNFQQDKFLGRWFVAGLASNSSWDREKVAALSGAKMVVAPATDGGLNVTRTMLRKNQCETYTGLLQPAGSLGSYSWRSPHPGSTGSESVVETDYDQYALVYGQGSKGPGEDLRAAALWSRTQTPRAELKEKFTAFSKAQGFTEDTIVFLPQTDKCMTEQ
Question: Which encoding yield [47] does the source give for B4 here?
Answer: 0.02

Question: And the encoding yield [48]?
Answer: 0.03

Question: What about the encoding yield [49] of the same binder?
Answer: 0.02

Question: And the encoding yield [50]?
Answer: 0.01

Question: And the encoding yield [51]?
Answer: 0.01

Question: What about the encoding yield [52] of the same binder?
Answer: 0.02

Question: What about the encoding yield [53] of the same binder?
Answer: 0.02

Question: And the encoding yield [54]?
Answer: 0.02
